# Source: patent publication US20240109955A1
# How the values were obtained:
# Assay in all cases: cell-based or functional assay
# [1] = molecular target: SARS-CoV-2 spike protein, Delta variant (AY.1) (SARS-CoV-2)
# [2] = molecular target: SARS-CoV-2 spike protein, Alpha variant (B.1.1.7) (SARS-CoV-2)
# [3] = molecular target: SARS-CoV-2 spike (S) protein, Omicron variant BA.1 (SARS-CoV-2) (UniProt P0DTC2)
# [4] = molecular target: SARS-CoV-2 spike protein, Delta variant (B.1.617.2) (SARS-CoV-2)
# [5] = molecular target: SARS-CoV-2 spike protein, Beta variant 1 (B.1.351 v1) (SARS-CoV-2)
# [6] = molecular target: SARS-CoV-2 spike protein, Gamma variant (P.1) (SARS-CoV-2)
# [7] = molecular target: SARS-CoV-2 spike (S) protein, Omicron variant BA.2.12.1 (SARS-CoV-2) (UniProt P0DTC2)
# [8] = molecular target: SARS-CoV-2 spike (S) protein, Omicron variant BA.2 (SARS-CoV-2) (UniProt P0DTC2)
# [9] = molecular target: SARS-CoV-2 spike (S) protein of Omicron sublineage BA.2.75 (G446S) (SARS-CoV-2) (UniProt P0DTC2)
# [10] = molecular target: SARS-CoV-2 spike (S) protein of Omicron sublineage BJ.1 (R346T, V445P, G446S) (SARS-CoV-2) (UniProt P0DTC2)
# [11] = molecular target: SARS-CoV-2 spike (S) protein of Omicron sublineage BQ.1.1 (R346T, K444T, F486V) (SARS-CoV-2) (UniProt P0DTC2)
# [12] = molecular target: SARS-CoV-2 spike protein, C.1.2 variant (SARS-CoV-2)
# [13] = molecular target: SARS-CoV-2 spike protein, Mu variant (B.1.621) (SARS-CoV-2)
# Chain of MX180 (B1-182 × A19-46) (bispecific antibody) (chain): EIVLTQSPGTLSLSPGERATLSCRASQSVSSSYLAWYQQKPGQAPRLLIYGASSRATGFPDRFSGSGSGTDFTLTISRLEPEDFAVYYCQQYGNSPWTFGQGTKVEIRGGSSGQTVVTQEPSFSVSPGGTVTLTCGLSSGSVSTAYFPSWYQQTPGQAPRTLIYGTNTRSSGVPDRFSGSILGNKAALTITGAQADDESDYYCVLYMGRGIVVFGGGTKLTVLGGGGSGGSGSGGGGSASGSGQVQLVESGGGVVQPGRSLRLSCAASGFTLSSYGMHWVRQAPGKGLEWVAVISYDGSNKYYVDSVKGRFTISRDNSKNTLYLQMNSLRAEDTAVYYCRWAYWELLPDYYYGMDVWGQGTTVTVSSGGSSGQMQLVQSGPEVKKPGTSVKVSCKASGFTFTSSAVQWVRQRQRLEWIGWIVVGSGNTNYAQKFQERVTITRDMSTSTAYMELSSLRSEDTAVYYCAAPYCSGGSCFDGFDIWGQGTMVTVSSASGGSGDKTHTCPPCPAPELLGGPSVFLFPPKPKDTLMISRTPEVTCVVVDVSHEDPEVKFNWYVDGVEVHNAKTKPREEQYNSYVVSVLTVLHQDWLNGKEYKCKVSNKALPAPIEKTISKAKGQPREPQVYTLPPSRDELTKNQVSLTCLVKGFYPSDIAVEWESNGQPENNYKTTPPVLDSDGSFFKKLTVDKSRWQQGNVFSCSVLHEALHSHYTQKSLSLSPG
# Chain of MX 490 (A23-58H/B1-182L × A19-46) (bispecific antibody) (chain): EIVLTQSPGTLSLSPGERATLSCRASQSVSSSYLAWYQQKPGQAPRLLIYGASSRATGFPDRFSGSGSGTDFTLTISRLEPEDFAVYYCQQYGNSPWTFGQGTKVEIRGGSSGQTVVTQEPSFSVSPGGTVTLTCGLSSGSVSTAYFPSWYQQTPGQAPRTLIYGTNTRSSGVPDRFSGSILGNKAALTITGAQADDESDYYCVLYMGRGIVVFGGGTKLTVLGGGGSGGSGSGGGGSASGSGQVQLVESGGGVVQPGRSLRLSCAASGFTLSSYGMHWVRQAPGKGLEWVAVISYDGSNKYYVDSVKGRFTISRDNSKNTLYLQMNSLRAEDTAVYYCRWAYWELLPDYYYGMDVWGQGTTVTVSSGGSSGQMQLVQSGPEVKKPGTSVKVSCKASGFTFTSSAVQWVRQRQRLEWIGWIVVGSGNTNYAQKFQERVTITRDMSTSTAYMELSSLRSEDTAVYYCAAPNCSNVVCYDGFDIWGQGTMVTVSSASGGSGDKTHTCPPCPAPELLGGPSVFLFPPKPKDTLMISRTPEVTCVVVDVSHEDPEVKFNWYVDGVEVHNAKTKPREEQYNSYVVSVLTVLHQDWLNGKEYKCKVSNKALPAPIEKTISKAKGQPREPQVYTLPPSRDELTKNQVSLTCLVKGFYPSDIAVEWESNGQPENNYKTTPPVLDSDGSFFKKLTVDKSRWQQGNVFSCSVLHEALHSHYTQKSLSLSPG
# Chain of A19-46.1 antibody (VH): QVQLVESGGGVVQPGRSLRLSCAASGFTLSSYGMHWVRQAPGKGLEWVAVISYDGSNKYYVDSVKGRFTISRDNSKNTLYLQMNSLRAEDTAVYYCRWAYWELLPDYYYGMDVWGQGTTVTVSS
# Chain of A19-46.1 antibody (VL): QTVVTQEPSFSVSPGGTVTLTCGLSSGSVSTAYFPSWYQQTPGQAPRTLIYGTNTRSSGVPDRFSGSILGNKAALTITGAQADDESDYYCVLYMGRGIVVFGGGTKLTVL
# Chain of MX179 (A19-46 × B1-182) (bispecific antibody) (chain): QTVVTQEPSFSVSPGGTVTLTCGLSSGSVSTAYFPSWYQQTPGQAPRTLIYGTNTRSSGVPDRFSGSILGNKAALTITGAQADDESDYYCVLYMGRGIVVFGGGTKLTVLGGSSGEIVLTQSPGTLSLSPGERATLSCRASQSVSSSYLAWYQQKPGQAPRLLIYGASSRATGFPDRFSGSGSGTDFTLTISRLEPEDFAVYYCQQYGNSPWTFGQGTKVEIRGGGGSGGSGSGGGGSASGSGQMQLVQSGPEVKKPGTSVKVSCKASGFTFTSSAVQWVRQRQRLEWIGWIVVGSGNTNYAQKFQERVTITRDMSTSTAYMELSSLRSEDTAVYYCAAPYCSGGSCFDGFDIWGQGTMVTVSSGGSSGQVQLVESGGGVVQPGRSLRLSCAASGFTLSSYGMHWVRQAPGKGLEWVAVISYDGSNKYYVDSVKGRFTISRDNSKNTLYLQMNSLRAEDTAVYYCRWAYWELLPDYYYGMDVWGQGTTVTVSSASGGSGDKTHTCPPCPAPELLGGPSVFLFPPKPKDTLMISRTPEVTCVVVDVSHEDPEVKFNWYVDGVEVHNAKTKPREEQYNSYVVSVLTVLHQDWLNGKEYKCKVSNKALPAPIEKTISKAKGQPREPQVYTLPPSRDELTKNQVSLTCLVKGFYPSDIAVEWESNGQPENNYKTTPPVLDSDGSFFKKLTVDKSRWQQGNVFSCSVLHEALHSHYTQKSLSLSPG
# Chain of MX184 (B1-182 × A19-61) (bispecific antibody) (chain): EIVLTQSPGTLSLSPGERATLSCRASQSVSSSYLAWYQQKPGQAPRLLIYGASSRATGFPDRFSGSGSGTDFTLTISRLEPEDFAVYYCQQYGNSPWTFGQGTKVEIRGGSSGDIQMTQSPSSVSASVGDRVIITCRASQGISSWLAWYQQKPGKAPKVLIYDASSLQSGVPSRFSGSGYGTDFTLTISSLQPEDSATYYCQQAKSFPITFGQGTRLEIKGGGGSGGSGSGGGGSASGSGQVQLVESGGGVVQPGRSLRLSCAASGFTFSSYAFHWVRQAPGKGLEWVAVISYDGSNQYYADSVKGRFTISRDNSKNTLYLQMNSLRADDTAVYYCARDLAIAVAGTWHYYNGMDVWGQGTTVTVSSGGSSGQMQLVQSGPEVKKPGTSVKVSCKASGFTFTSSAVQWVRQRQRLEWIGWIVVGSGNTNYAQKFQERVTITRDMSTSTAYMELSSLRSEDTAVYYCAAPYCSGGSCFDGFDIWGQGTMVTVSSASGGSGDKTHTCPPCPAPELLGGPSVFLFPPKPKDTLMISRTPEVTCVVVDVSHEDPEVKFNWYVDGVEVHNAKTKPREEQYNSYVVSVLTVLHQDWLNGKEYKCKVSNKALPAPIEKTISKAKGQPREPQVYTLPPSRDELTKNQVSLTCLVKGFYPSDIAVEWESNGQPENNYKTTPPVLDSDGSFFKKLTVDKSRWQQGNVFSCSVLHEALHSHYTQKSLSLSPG
# Chain of MX413 (A19-61 x A23-58H/B1-182L) bispecific, tetravalent molecule with Fc (bispecific antibody) (chain): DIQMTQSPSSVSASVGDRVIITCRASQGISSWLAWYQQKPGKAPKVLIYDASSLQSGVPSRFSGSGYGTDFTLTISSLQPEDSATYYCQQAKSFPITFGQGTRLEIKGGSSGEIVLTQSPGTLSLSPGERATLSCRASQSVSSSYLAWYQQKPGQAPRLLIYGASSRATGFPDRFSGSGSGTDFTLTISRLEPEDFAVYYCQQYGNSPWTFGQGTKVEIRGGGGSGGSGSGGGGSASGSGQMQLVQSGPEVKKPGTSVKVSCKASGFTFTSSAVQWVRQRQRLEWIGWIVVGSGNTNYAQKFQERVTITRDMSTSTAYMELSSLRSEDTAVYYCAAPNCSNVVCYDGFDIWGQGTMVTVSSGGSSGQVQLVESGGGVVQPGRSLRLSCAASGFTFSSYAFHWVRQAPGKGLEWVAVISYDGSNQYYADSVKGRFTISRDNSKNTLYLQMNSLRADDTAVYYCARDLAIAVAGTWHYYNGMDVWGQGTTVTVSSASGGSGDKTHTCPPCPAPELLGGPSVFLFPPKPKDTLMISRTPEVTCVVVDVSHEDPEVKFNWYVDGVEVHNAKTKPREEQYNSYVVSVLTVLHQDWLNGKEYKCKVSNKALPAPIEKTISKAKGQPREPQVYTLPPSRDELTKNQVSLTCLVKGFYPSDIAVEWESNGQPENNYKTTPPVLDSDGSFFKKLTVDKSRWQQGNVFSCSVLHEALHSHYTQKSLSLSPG
# Chain of MX468 (A19-61 × A23-58H/B1-182L CL-CH1) (bispecific antibody) (chain): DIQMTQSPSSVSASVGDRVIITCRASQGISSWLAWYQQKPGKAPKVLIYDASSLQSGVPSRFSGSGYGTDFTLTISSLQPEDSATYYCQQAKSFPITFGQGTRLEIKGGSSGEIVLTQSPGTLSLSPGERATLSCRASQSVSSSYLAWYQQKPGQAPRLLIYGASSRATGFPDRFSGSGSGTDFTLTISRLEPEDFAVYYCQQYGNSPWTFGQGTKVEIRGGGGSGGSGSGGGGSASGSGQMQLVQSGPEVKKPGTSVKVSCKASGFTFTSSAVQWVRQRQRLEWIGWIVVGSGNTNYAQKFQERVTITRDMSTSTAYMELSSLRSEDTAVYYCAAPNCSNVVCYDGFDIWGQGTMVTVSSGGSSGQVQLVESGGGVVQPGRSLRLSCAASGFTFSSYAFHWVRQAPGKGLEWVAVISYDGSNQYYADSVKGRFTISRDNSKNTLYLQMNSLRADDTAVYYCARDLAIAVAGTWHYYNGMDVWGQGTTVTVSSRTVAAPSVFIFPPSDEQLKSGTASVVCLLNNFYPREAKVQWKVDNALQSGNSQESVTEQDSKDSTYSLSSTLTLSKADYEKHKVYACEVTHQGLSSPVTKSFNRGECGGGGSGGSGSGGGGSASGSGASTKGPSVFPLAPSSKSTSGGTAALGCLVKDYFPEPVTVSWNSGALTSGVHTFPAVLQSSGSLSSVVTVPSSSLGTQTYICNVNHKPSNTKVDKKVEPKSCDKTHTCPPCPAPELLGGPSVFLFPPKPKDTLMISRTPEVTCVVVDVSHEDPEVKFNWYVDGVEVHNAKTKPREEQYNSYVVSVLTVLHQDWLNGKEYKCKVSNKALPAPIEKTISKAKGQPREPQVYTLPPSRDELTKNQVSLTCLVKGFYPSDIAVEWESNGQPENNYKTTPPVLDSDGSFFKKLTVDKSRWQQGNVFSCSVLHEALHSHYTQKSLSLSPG
Substance,"IC50, pseudovirus neutralization [3]","IC80, pseudovirus neutralization [3]","IC50, pseudovirus neutralization [7]","IC80, pseudovirus neutralization [7]","IC50, pseudovirus neutralization [8]","IC80, pseudovirus neutralization [8]",also measured
MX184 (B1-182 × A19-61) (bispecific antibody),47.6 nM,> 66.7 nM,,,,,"IC50, pseudovirus neutralization [1]: 0.0174 nM; IC80, pseudovirus neutralization [1]: 0.03 nM; IC50, pseudovirus neutralization [2]: 0.0772 nM; IC80, pseudovirus neutralization [2]: 0.186 nM; IC50, pseudovirus neutralization [4]: 0.0129 nM; IC80, pseudovirus neutralization [4]: 0.0458 nM; IC50, pseudovirus neutralization [5]: 0.0441 nM; IC80, pseudovirus neutralization [5]: 0.12 nM; IC50, pseudovirus neutralization [6]: 0.0325 nM; IC80, pseudovirus neutralization [6]: 0.137 nM"
MX468 (A19-61 × A23-58H/B1-182L CL-CH1) (bispecific antibody),1.33 nM,4.06 nM,0.0224 nM,0.0698 nM,0.0289 nM,0.0617 nM,
MX180 (B1-182 × A19-46) (bispecific antibody),0.0187 nM,0.0652 nM,0.584 nM,2.82 nM,0.041 nM,0.103 nM,
"MX413 (A19-61 x A23-58H/B1-182L) bispecific, tetravalent molecule with Fc (bispecific antibody)",,,,,,,"IC50, pseudovirus neutralization [9]: 21 nM; IC80, pseudovirus neutralization [9]: 71 nM; IC50, pseudovirus neutralization [10]: 3210 nM; IC80, pseudovirus neutralization [10]: > 10000 nM; IC50, pseudovirus neutralization [11]: > 10000 nM; IC80, pseudovirus neutralization [11]: > 10000 nM"
A19-46.1 antibody,,,,,,,"IC50, pseudovirus neutralization [9]: 148 nM; IC80, pseudovirus neutralization [9]: 352 nM; IC50, pseudovirus neutralization [10]: > 10000 nM; IC80, pseudovirus neutralization [10]: > 10000 nM; IC50, pseudovirus neutralization [11]: > 10000 nM; IC80, pseudovirus neutralization [11]: > 10000 nM"
MX492 (A19-46 × A23-58H/B1-182L) (bispecific antibody),0.0058 nM,0.0369 nM,0.107 nM,0.93 nM,0.0201 nM,0.0451 nM,
MX467 (A23-58H/B1-182L × A19-61 CL-CH1) (bispecific antibody),18.5 nM,69.4 nM,0.0181 nM,0.127 nM,0.0373 nM,0.0738 nM,
MX179 (A19-46 × B1-182) (bispecific antibody),0.0068 nM,0.0193 nM,0.167 nM,0.929 nM,0.0137 nM,0.0389 nM,
A23-58H/B1-182L mAb (antibody),0.364 nM,1.39 nM,0.83 nM,3.27 nM,0.544 nM,2.48 nM,"IC50, pseudovirus neutralization [12]: 0.0207 nM; IC80, pseudovirus neutralization [12]: 0.0348 nM; IC50, pseudovirus neutralization [2]: 0.0174 nM; IC80, pseudovirus neutralization [2]: 0.0376 nM; IC50, pseudovirus neutralization [4]: 0.0104 nM; IC80, pseudovirus neutralization [4]: 0.0205 nM; IC50, pseudovirus neutralization [5]: 0.0305 nM; IC80, pseudovirus neutralization [5]: 0.0966 nM; IC50, pseudovirus neutralization [6]: 0.0116 nM; IC80, pseudovirus neutralization [6]: 0.0237 nM; IC50, pseudovirus neutralization [13]: 0.0402 nM; IC80, pseudovirus neutralization [13]: 0.108 nM"
MX 490 (A23-58H/B1-182L × A19-46) (bispecific antibody),0.22 nM,0.484 nM,> 6.7 nM,> 6.7 nM,0.392 nM,0.896 nM,
